Source: patent US20140314667A1, “METHODS OF TREATING EPIDERMAL GROWTH FACTOR DELETION MUTANT VIII RELATED DISORDERS” (AMGEN INC., priority 2011, published 2014)

T1: OVA (Gallus gallus, UniProt P01012)
T1 sequence (P01012 1-386): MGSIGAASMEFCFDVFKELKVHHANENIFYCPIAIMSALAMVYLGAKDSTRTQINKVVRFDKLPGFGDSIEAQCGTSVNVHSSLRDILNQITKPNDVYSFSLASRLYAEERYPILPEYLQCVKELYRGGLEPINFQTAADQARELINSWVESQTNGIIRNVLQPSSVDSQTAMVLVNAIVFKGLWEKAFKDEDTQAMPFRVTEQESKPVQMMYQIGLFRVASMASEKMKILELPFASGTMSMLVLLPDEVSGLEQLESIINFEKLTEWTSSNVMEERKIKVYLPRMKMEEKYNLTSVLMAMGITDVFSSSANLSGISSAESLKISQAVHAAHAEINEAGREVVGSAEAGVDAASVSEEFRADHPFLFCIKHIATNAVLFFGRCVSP


What was measured:
[1] = biological target: T2, EGFRvIII receptor in NR6 M cells (Homo sapiens, UniProt P00533, DELINS30-297G); experiment: Internalization of EGFRvIII receptor by recombinant mAbs (FACS); format: cell-based; conditions: 0.25 μg/ml antibody, 1 hr
T2 construct: NR6 M cells stably expressing full length EGFRvIII; expressed in transfected cells; host or cells: NR6 cells (NR6 M)
Procedure: XenoMax derived IgG1 recombinant antibodies were expressed, purified and quantitated as described previously. Antibodies were further assayed for their ability to internalize the EGFRvIII receptor in NR6 M cells. […] The cells were washed with cold 10% FCS in PBS and secondary antibody (SS Alexa antihuman IgG Fab) at 3 μg/ml Fab was added and incubated for 7 mins on ice. The cells were washed with cold 10% FCS in PBS once and then resuspended in cold media. Next, two sets of the triplicate were incubated at 37° C. and the remaining set was incubated at 4° C. for 1 hr. After that the cells incubated at 4° C. and one set of the cells incubated at 37° C. were treated with glutathione (as previously mentioned) for 1 hr on ice. Then the cells were washed and resuspended in 100 μl of cold 1% FCS in PBS and analyzed by FACS. The % internalization was calculated from the geometric mean obtained from the FACS analysis [(mean at 37° C. with glutathione−mean at 4° C. with glutathione)/(mean at 37° C. without glutathione−mean at 4 C with glutathione)].

[2] = biological target: T3, EGFRvIII receptor on NR6 M cells (Homo sapiens, UniProt P00533, DELINS30-297G); experiment: Internalization assay (FMAT, glutathione) of B cell culture supernatants; format: cell-based; conditions: for % internalized, (glut+/glut−) × 100 / With glutathione FL1xcount: 37° C. for 30 mins; for With glutathione FL1xcount: 50 mM glutathione; for No glutathione FL1xcount: kept on ice
T3 construct: NR6 M cells stably expressing full length EGFRvIII; expressed in transfected cells; host or cells: NR6 cells (NR6 M)
Procedure: The top 60 native binding B cell culture supernatants were further assayed for their ability to internalize the receptor. NR6 M cells were seeded at 8000 cells/well into 96 well FMAT plates and incubated overnight. Media was removed and 10-15 μl B-Cell culture supernatant in a total volume of 30 μl media, in duplicate was added. Next, 15 μl of secondary antibody (SS Alexa 647 anti-human IgG Fab at 1.5 μg/ml final concentration) was added and the mixture was incubated on ice for 1 hr. An irrelevant B-Cell Culture supernatant was used to see the effect of the culture media. Human anti-EGFRvIII mAb 13.2.1 was used as a positive control starting at 1 μg/ml (final concentration) and negative control was PK 16.3.1 (human anti-KLH IgG2 antibody) at the same concentration. After incubation, the cells were washed with cold PBS, 50 μl media was added to all of the wells, one of the duplicates were incubated at 37° C. for 30 mins while the other duplicate remained on ice. After the incubations media was removed, 100 ul of cold 50 mM glutathione was added to the set incubated at 37° C. and 100 μl of cold media added to the other set, both sets were then left on ice for 1 hr. The cells were then washed with 100 μl cold PBS and then fixed with 1% paraformaldehyde and read in FMAT. The results were expressed as % internalized, calculated as total fluorescence in the presence of glutathione/total fluorescence in the absence of glutathione×100.

[3] = biological target: T4, NR6 Wt cells (NR6 cells expressing EGF receptor) (Homo sapiens, UniProt P00533); experiment: Native cell binding assay by FMAT, NR6 Wt cells; conditions: for cross-reactivity with wild type EGFR: XenoMax approach, in words
T4 construct: expressed in transfected cells; host or cells: NR6 cells (NR6 Wt)
Text: The same type of native binding assay was done on NR6 Wt cells (NR6 cells expressing EGF receptor) (See Batra et al. Epidermal growth factor ligand-independent, unregulated, cell-transforming potential of a naturally occurring human mutant EGFRvIII gene. Cell Growth Differ. 6(10):1251-9 (1995)) to eliminate the binding is due to binding to Wt receptor (Table 3.8). ABX-EGF was used as a positive control and PK 16.3.1 at the same concentration was used as a negative control antibody. 3 out the 134 NR6 M binders were binding strongly to NR6 Wt cells. 190 of the 244 wells bound EGFRvIII peptide in Elisa were also bound to the native form on cells.
In this example, binding of anti-EGFRvIII antibodies to NR6 M cells was measured. Specifically, unquantitated supernatants of XenoMax derived IgG1 recombinant antibodies were assayed for their ability to bind to NR6 M and NR6 WT cells. Cells were seeded at 10000/well and incubated overnight at 37 C in FMAT 96 well plates. Media was removed and 40 μl mini lipo supernatant (titrated down) was added, the cells were incubated on ice for 1 hr. […] The PK 16.3.1 antibody was used as a negative control. The cells were washed with Cold PBS, secondary antibody was added (SS Alexa antihuman IgG Fc) at 1 μg/ml, 40 μl/well and incubated on ice for 1 hr. The cells were then washed with Cold PBS and fixed and read by FMAT. All antibodies were tested for specificity for binding by counter screening against NR6 WT cells.

EGFRvIII-peptide-OVA = biological target: T5, EGFRvIII-peptide-OVA (Homo sapiens, UniProt P00533, DELINS30-297G); experiment: B-cell culture supernatant ELISA on EGFRvIII-peptide-OVA; format: binding; conditions: for binding with the pep3: XenoMax approach, in words
T5 construct: 207 μg of EGFRvIII PEP3 was reduced; host or cells: synthetic peptide, chemical conjugation
Procedure: B-cells from the above-discussed animals were harvested and cultured. Those secreting EGFRvIII-peptide specific antibodies were isolated as described in Babcook et al., Proc. Natl. Acad. Sci. USA, 93:7843-7848 (1996). ELISA was used to identify primary EGFRvIII-peptide-OVA-specific wells. About 5 million B-cells were cultured from XenoMouse animals in 24596 well plates at 500 or 150 or 50 cells/well, and were screened on EGFRvIII-peptide-OVA to identify the antigen-specific wells.
(§1) 244 of EGFRvIII-peptide-OVA-Elisa positive wells of OD >0.5 were screened again on EGFRvIII-peptide-OVA and on OVA to confirm that they were EGFRvIII-peptide specific.

[4] = biological target: T6, native form of EGFRvIII stably expressed on NR6 cells (NR6 M cells) (Homo sapiens, UniProt P00533, DELINS30-297G); experiment: Native cell binding assay by FMAT, NR6 M cells; conditions: total fluorescent intensity
T6 construct: NR6 M cells stably expressing full length EGFRvIII; expressed in transfected cells; host or cells: NR6 cells (NR6 M)
Procedure: EGFRvIII peptide-OVA-Elisa positive well supernatants were analyzed for their ability to bind to the native form of EGFRvIII stably expressed on NR6 cells (NR6 M cells) (See, Batra et al. Epidermal growth factor ligand-independent, unregulated, cell-transforming potential of a naturally occurring human mutant EGFRvIII gene. Cell Growth Differ. 6(10):1251-9 (1995)). NR 6 M cells were seeded at 8000 cells per well and incubated over night in 96 well FMAT plates. Media was then removed leaving 15 μl in the well. 15 μl B-cell culture supernatants were added and 15 μl anti-human IgG Fc Cy5 at 1 μg/ml final concentration added to wells. It is then left incubated at 4° C. for 2 hours. The cells were washed with 150 μl PBS, and fixed before reading on FMAT. The results were expressed as total fluorescent intensity (Table 3.8).

OVA = biological target: T1, OVA; experiment: B-cell culture supernatant ELISA on OVA (specificity control); format: binding; conditions: Table 3.8
Text: as §1

| FACS Geometric mean With glutathione 4° C. [1] | FACS Geometric mean With glutathione 37° C. [1] | % internalized, (glut+/glut−) × 100 [2] | With glutathione FL1xcount [2] | No glutathione FL1xcount [2] | binding with the pep3 (EGFRvIII-peptide-OVA) | Molecule | cross-reactivity with wild type EGFR [3] | further results |
| --- | --- | --- | --- | --- | --- | --- | --- | --- |
| 4.67 | 7.75 | 52.8% | 1236 | 2342 | – | 170: XenoMax derived anti-EGFRvIII antibody, SEQ ID NO: 4/20 (antibody, listed as Homo sapiens, V domains shown) VH: QVQLQQSGPGLVKPSQTLSLTCAISGDSVSSNNAAWNWIRQSPARGLEWLGRTYYRSKWYNDYVVSVKSRITINPDTSKNQFSLQLNSVTPEDTAVYYCVRATAFDYWGQGTLVTVSS VL: AIVLTQTPLSSPVTLGQPASISCRSSQSLVHRDGNTYLSWLQQRPGQPPRLLIYKISNRFSGVPDRFSGSGAGTDFTLKISRVEPDDVGVYYCMHTTQLPWTFGQGTKVEIK | – | – |
| 4.84 | 8.07 | – | – | – | highly specific | 250: XenoMax derived anti-EGFRvIII antibody, SEQ ID NO: 9/26 (antibody, listed as Homo sapiens, V domains shown) VH: EGQLLESGGGWVQPGESLRLSCAASGFTFSSYAMSWVRQAPGKGLEWVSAISGSGGSTNYADSVKGRFTISRDNSKNTLYLQVNSLRVEDTAVYYCAGSSGWSEYWGQGTLVTVSS VL: DIQMTQSPSSLSASVGDSVTITCRTSQGIRKNLGWYQQKPGKAPKRLIYAASSLQSGVPSRFSGSGSGTEFTLTISRLQPEDFATYYCLQHHSYPLTFGGGTRVEIR | limited cross-reactivity with wild type EGFR | – |
| 5.13 | 17.75 | – | – | – | highly specific | 095: XenoMax derived anti-EGFRvIII antibody, SEQ ID NO: 7/23 (antibody, listed as Homo sapiens, V domains shown) VH: QVQLQESGPFLVKPSQTLSLTCTVSGGSISSGGYYWSWIRQHPGKGLEWIGFIYYRGNTYYNPSLKSRVTISVDTSKNQFSLKLSSVTAADTAVYYCARDGYCSRTGCYGGWFDPWGQGTLVTVSP VL: DIVMTQTPLSSPVTLGQPASISCRSSQSLIHTDGNIYLSWLQQRPGQPPRLLIYKISNRFSGVPDRFSGSGAGTDFTLKISRVEAEDVGVYYCMQGTQFPITFGQGTRLEIK | limited cross-reactivity with wild type EGFR | – |
| 4.66 | 7.78 | – | – | – | – | 150: XenoMax derived anti-EGFRvIII antibody, SEQ ID NO: 5/21 (antibody, listed as Homo sapiens, V domains shown) VH: QVQLQQSGPGLVKPSQTLSLTCAISGDSVSSYSSAWNWIRQSPSRGLEWLGRAYHRSRWYYEYAVSVKSRINITPDTSKNQFSLQLNSVTPEDTAVYYCARGSRFDYWGQGTLVTVSS VL: DIVMTQTPLSSPVTLGQPASISCRSSQSLVHRDGNTYLSWLQQRPGQPPRLLIYKISNRFSGVPDRFSGSGAGTDFTLKISRVEAEDVGIYFCMHTTQFPWTFGQGTRVEIK | – | – |
| – | – | 37.1% | 13293 | 35820 | – | 333: XenoMax derived anti-EGFRvIII antibody, SEQ ID NO: 17/32 (antibody, listed as Homo sapiens, V domains shown) VH: QVQLVESGGGVVQPGRSLRLSCVASGFTLSSYGMHWVRQALGKGLEWVAVTSYDGSKKDYADSVKGRFTISRDNSKNTLYLQMNSLRAEDTAVYYCVSEGYCDSTSCYKYYYYGMDVWGQGTTVTVSS VL: DIVMTQSPLSLPVTPGEPASISCRSSQSLLYRNGNNYLDWYLQRPGQSPQLLIYLGSNRASGVPDRFSGSGSGTDFTLKISRVEAEDVGVYYCMQALQTPRTFGQGTKVEIK | – | FMAT native binding to NR6 M cells [4]: 109379; FMAT native binding to NR6 Wt cells ([3]; total fluorescent intensity): 0; OVA OD (OVA): 0.1649; 1′ VIII-pep-OVA OD (EGFRvIII-peptide-OVA; Table 3.8): 0.8555; 2′ VIII-pep-OVA OD (EGFRvIII-peptide-OVA; Table 3.8): 1.2070 |
| 4.78 | 8.23 | – | – | – | – | 211: XenoMax derived anti-EGFRvIII antibody, SEQ ID NO: 12/28 (antibody, listed as Homo sapiens, V domains shown) VH: QVQLVESGGGVVQPGRSLRLSCVASGFTLSSYGMHWVRQAPGKGLEWVAVTSYDGSKKDYADSAKGRFTISRDNSKNTLYLQMNSLRAEDTAVYYCVSEGYCSSSSCYKYYYYGMDVWGQGTTVTVSS VL: DIVMTQSPLSLPVTPGEPASISCRSSQSLLYRNGNNYLDWYLQRPGQSPQLLIYLGSNRASGVPDRFSGSGSGTDFTLKISRVEAEDVGVYYCMQALQTPRTFGQGTKVEIK | – | – |
